Measured values as given in article PMC6610666, “E2F4 regulates transcriptional activation in mouse embryonic stem cells independently of the RB family” (Nature Communications, 2019).

Biological target: mouse CBP TAZ1 (residues 340-439) (mouse, UniProt P45481 340-439)
Experiment: ITC; MicroCal VP-ITC; E2F4 TAD (300 uM) titrated into TAZ1 (30 uM) at 25 C; 25 mM HEPES pH 7.0, 200 mM NaCl, 5% glycerol v/v; E2F4 concentration adjusted such that N was close to 1
Settings: both partners purified

Sequence of mouse CBP TAZ1 (residues 340-439) (P45481 340-439): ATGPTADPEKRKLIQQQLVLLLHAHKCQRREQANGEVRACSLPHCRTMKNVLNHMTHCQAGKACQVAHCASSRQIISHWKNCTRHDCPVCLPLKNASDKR

binding result: binds
B1: human E2F4 transactivation domain (residues 390-407) (domain or fragment, UniProt Q16254 390-407, looked up)
chain: HDYIYNLDESEGVCDLFD
notes: also called E2F4 TAD; E2F4 peptide; source: E. coli, purified (GST fusion, Superdex-75)
